We go through two molecules from patent US12297265B2, “Antibody and use thereof” (SICHUAN KELUN-BIOTECH BIOPHARMACEUTICAL CO., LTD., priority 2018, dated 2025).

Test [1] has as its target T1, human Claudin18.2 (Homo sapiens, UniProt P56856). The experiment in a line: Affinity of chimeric and humanized antibodies to Ba/F3-Claudin 18.2 cells (IntelliCyt). Also noted: expressed in transfected cells; host or cells: Ba/F3 (BaF/3, DSMZ ACC300), hygromycin-selected monoclonal line. In kind it is binding. From the text: In order to evaluate the anti-Claudin18.2 humanized antibodies, codon optimized cDNAs of the heavy chains and the light chains of the candidate humanized antibodies from Example 6 were synthesized and ligated into pcDNA3.4 (by Nanjing Genscript Biotech Corporation). Expi293F cells (purchased from Thermo Incorporation) were co-transfected with pcDNA3.4 coding the heavy chain and light chain of each antibody. The antibodies were purified from the supernatant using protein A (MabSelect SuRe, GE). The affinity of the humanized antibodies to Claudin18.2 was determined using Ba/F3-Claudin18.2 cells which over-expressed human Claudin18.2. Ba/F3-Claudin18.2 cells (60000 in 10 ul buffer) were incubated with purified humanized antibodies on ice for 30 min, followed by washing with buffer (PBS+2% FBS) twice and addition of Alexa647-labeled goat-anti-human IgG Fc antibody (1:500 dilution). The cells were incubated on ice for another 30 min and analyzed by IntelliCyt.

The target of test [2] is T1, human Claudin18.2. The experiment in a line: Cellular ELISA on L929-Claudin 18.2 cells. The format is binding. Also noted: expressed in transfected cells; host or cells: L929, infected with pLVX-IRES-puro lentivirus, puromycin-selected monoclonal line; cells were formaldehyde-fixed for the cellular ELISA. The note with it: Table 10 experiment. On the procedure: Human Claudin18.2 is a four transmembrane protein and has a complex structure. Cellular ELISA was thus carried out to maintain the structure of Claudin18.2. The stable cell line L929-Claudin 18.2 constructed in Example 1 were used for detection. Specifically, L929-Claudin 18.2 adherent cells were detached by 2 mM EDTA treatment. The cells were resuspended and adjusted to 2×10^5/mL and 100 μL of the resuspension was plated into 96 well plate and incubated overnight at 37° C. The next day, the media was removed, and the plate was washed with PBS once. 100 μL/well 4% formaldehyde was added to the plate. After 30 min of incubation at room temperature, formaldehyde was removed, followed by washing twice with PBS. Blocking buffer (PBS containing 2% BSA) was then added to the plate at 100 μL/well, and incubated at 37° C. for 2 h. After removal of blocking buffer, 100 μL/well of serially diluted antibodies (starting from 1 μM, with 4-fold dilution, for a total of 11 concentrations) were added to the corresponding wells, which were incubated at 37° C. for 2h afterwards. The plate was washed with 250 μL PBST for 5 times, and was allowed to stand for 2 min each time. 100 μL/well of horseradish peroxidase labeled anti-Human IgG secondary antibody (HRP-anti-Human IgG, Jackson ImmunoResearch, 109-035-003) diluted 1:10000 in PBS (containing 2% BSA) was added to the plate. The plate was incubated at 37° C. for 1 h and washed with 250 μL PB ST 6 times, wherein the plate was allowed to stand for 2 min each time. 100 μL/well of TMB solution (Thermo, 34029) was added. The reactions were incubated at 37° C. for 20 min and stopped with 50 μL 2 mol/L H2504. The absorbance at 450 nm was read on a plate reader (MD, SpectraMax M2) and the results were subjected to curve fitting by Graphpad Prism.
For orientation: An ELISA detects its analyte on a solid surface through an enzyme-linked reagent.

B1: 1E9.2-hz31: humanized antibody of 1E9.2; VH SEQ ID NO: 31, VL SEQ ID NO: 33 (antibody, V domains shown)
VH: EVQLVESGGGLVKPGGSLRLSCAASGFSFSNSAMSWVRQAPGKGLEGVATISSGDSYTYYADSVKGRFTISRDNAKNSLYLQMNSLRAEDTAVYYCARQGYGNALDYWGQGTLVTVSS
VL: DIVMTQSPDSLAVSLGERATINCKSSQSLLNSGNQKNYLTWYQQKPGQPPKLLIYWSSTRESGVPDRFSGSGSGTDFTLTISSLQAEDFAVYYCQNDYYYPLTFGGGTKVEIK
modifications: heavy chain variable region of humanized antibody 1E9.2hz31; light chain variable region of humanized antibody 1E9.2hz11/1E9.2hz21/1E9.2hz31/1E9.2hz41
For the molecule B1, in the test with human Claudin18.2 [1], the “Max MFI” value is recorded as 10.64 ×10^6.

B2: 2C6.9-hz11: humanized antibody of 2C6.9; VH SEQ ID NO: 39, VL SEQ ID NO: 41 (antibody, V domains shown)
VH: QVQLQESGPGLVKPSETLSLTCTVSGFSLTRYGVSWIRQPPGKGLEWIGVIWGDGNTNYNPSLKSRVTISKDSSKSQVSLKLSSVTAADTAVYYCARVNFGNALDYWGQGTLVTVSS
VL: DIVMTQSPDSLAVSLGERATINCKSSQSLLNSGNQKNYLTWYQQKPGQPPKLLIYWASTRDSGVPDRFSGSGSGTDFTLTISSLQAEDVAVYYCQNDFIFPLTFGGGTKVEIK
modifications: Heavy chain variable region of humanized antibody 2C6.9hz11; light chain variable region of humanized antibody 2C6.9hz11/2C6.9hz21
As to B2, the “Max Signal Value (OD450)” value in the test with human Claudin18.2 [2] was 0.8 OD450.
